From IntAct's records for PubMed 18191225 come the findings set out here.

The labels stand for the following.
B1: Caveolin-3 (Mus musculus), P51637 (parent)
chain: MMTEEHTDLEARIIKDIHCKEIDLVNRDPKNINEDIVKVDFEDVIAEPEGTYSFDGVWKVSFTTFTVSKYWCYRLLSTLLGVPLALLWGFLFACISFCHIWAVVPCIKSYLIEIQCISHIYSLCIRTFCNPLFAALGQVCSNIKVVLRREG
partner: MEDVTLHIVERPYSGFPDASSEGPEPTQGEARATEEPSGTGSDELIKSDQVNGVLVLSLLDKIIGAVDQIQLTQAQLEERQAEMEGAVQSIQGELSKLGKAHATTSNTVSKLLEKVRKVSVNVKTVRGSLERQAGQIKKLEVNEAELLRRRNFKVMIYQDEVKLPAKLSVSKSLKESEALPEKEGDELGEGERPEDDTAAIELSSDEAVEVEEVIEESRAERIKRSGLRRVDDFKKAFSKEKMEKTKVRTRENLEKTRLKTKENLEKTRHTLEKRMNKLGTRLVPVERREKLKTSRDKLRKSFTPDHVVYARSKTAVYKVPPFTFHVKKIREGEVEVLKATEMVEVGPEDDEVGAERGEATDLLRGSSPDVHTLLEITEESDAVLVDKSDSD

The assay covers variants of B1. The following applies: with cavn1_mouse Cavin1, O54724.
In the case of P105L, the “effect of a mutation on the interaction” value is on record as “decreasing interaction”.
